Measurements from US20200199216A1 (KINDRED BIOSCIENCES, published 2020).
Substitutions are numbered along the chain they refer to. Each block holds one binder with its values, some of them ahead of it.

Key:
[1] = biological target: T1, canine IL17A (as used at 1 nM in the H1080 cell assay) (canine); assay: cell-based or functional assay
T1 chain: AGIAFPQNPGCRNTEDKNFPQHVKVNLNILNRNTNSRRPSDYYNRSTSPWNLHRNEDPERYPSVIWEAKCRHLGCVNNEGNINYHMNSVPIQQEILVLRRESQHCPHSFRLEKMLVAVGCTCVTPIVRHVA

canine IL17F-polyHis [2] = biological target: T2, canine IL17F-polyHis (canine, biotinylated in the biosensor assay); assay: Western blot: SDS-PAGE, PVDF, goat anti-mouse IgG-HRP
T2 construct: also called IL17F homodimer; not shown: poly-His tag on the C-terminal
T2 chain: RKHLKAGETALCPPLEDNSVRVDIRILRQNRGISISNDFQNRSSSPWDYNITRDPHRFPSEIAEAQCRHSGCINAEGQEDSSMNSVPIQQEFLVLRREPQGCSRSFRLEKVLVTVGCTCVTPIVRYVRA
Experimental: Canine IL17A-hFc, feline IL17A-polyHis, equine IL17A-polyHis, and canine IL17F-polyHis (0.6 μg) were each separated by SDS-PAGE and the proteins transferred to PVDF membranes. The blots were probed using Clone A, C, D, or E antibody followed by goat anti-mouse IgG-HRP. In this Western analysis, Clone A, C, and E antibodies immunoreacted to canine and equine IL17A, but not to feline IL17A or canine IL17F. Clone D antibody immunoreacted to canine, feline, and equine IL17A, but not to canine IL17F.

[3] = biological target: T1, canine IL17A (as used at 1 nM in the …); assay: cell-based or functional assay
canine IL17A-polyHis = biological target: T3, canine IL17A-polyHis (canine, biotinylated (EZ-Link NHS-LC-biotin) in the biosensor assays); assay: BLI (Octet); biotinylated canine IL17A-polyHis on streptavidin sensors, antibody 0-220 nM, 1:1 model
T3 construct: also called biotinylated canine IL17A-polyHis; not shown: poly-His tag on the C-terminal
T3 chain: T1 chain
Experimental: The binding analysis was performed using a Biosensor Octet as follows. Briefly, canine IL17A-polyHis, which was expressed and purified from CHO-S cells, was biotinylated using EZ-Link NHS-LC-biotin (Catalog No. 21336, Thermo Scientific). Free, unreacted biotin was removed from biotinylated IL17A by dialysis. Biotinylated canine IL17A was captured on streptavidin sensor tips (Catalog No. 18-509, ForteBio). The association of different concentrations (0 nM, 18.33 nM, 45.87 nM, 110 nM, 220 nM) of hybridoma Clone C or caninized Clone C antibody to canine IL17A was monitored for 90 seconds. Dissociation was monitored for 600 seconds. A buffer only blank curve was subtracted to correct for any drift. The data were fit to a 1:1 binding model using ForteBio™ data analysis software to determine the kₒₙ, koff, and the Kd. The buffer for dilutions and all binding steps was: 20 mM phosphate, 150 mM NaCl, pH 7.2.

canine IL17F-polyHis [4] = biological target: T2, canine IL17F-polyHis; assay: BLI (Octet); biotinylated canine IL17F-polyHis on streptavidin sensors, antibody 0-124 nM, 1:1 model
Experimental: The binding analysis was performed using a biosensor Octet as follows. Briefly, canine IL17F-polyHis was biotinylated using EZ-Link NHS-LC-biotin (Catalog No. 21336, Thermo Scientific). Free, unreacted biotin was removed from biotinylated IL17F-polyHis by dialysis. Biotinylated canine IL17F was captured on streptavidin sensor tips (Catalog No. 18-509, ForteBio). The association of different concentrations (0 nM, 2 nM, 10.1 nM, 21.3 nM, 43.3 nM, 86.7 nM, 124 nM) of the caninized Clone C antibody and canine IL17F-polyHis was monitored for ninety seconds. Dissociation was monitored for 600 seconds. A buffer only blank curve was subtracted to correct for any drift. The data were fit to a 1:1 binding model using ForteBio™ data analysis software to determine the kₒₙ, koff, and the Kd. The buffer for dilutions and all binding steps was: 20 mM phosphate, 150 mM NaCl, pH 7.2.

[5] = biological target: T4, canine IL4 (biotinylated) (canine, UniProt O77762 25-132, biotinylated); assay: BLI capture step; biotinylated canine IL4 on streptavidin sensor tips, fusion at 25 µg/mL
T4 construct: Used only to capture the IL4R/IL13R-Fc fusions on streptavidin sensor tips; also called Biotinylated canine IL4
T4 sequence (looked up): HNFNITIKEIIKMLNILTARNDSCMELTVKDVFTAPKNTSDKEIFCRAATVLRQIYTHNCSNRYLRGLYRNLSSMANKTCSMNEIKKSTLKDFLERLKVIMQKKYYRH
Experimental: (§1) The determine the binding affinity of C1q to canine IgG-B Fc variant 1, a biosensor binding analysis was performed. In this assay, the affinity of C1q to a fusion protein of a canine IL4 receptor ECD and IL13 receptor ECD (IL4R/IL13R) and canine IgG-B Fc wild-type (IL4R/IL13R-canine IgG-B, SEQ ID NO: 95) or to canine IgG-B Fc variant 1 (IL4R/IL13R-canine IgG-B variant 1, SEQ ID NO: 96) was tested. Briefly, canine IL4 was biotinylated. Biotinylated canine IL4 was captured on streptavidin sensor tips. Either IL4R/IL13R-canine IgG-B wild-type (25 ug/mL) or IL4R/IL13R-canine IgG-B variant 1 (25 μg/mL) were complexed to the IL4-bound biosensors. Subsequently, the complex was used to bind human C1q at 250 μg/mL (Catalog No. 204876-1MG; Sigma Aldrich). Then, the ability of human C1q to bind to either complex was measured. Reduced binding between human C1q and IL4R/IL13R-canine IgG-B variant 1 was observed when compared to IL4R/IL13R-canine IgG-B wild-type.

[6] = biological target: T5, human C1q (Catalog No. 204876-1MG; Sigma Aldrich) (human, UniProt P02745 23-245; P02746 28-253; P02747 29-245); assay: BLI; Fc fusion (25 µg/mL) captured on IL4-bound streptavidin sensors, human C1q at 250 µg/mL
T5 construct: Bought protein
Experimental: as §1

T5 sequence (P02745 23-245 limits assumed, chain 1 of 3): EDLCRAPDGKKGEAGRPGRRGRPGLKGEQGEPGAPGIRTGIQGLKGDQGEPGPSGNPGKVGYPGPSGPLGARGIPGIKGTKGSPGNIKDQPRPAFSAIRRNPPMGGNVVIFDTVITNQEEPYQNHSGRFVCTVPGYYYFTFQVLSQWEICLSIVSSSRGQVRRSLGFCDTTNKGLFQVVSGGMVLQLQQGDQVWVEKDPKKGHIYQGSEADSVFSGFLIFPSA
T5 sequence (P02746 28-253 limits assumed, chain 2 of 3): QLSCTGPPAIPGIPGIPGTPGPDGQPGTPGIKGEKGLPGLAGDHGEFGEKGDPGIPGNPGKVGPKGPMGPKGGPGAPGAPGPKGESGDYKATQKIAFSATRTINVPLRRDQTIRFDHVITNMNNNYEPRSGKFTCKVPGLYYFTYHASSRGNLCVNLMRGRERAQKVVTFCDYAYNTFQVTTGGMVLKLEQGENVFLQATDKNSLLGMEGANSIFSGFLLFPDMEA
T5 sequence (P02747 29-245 limits assumed, chain 3 of 3): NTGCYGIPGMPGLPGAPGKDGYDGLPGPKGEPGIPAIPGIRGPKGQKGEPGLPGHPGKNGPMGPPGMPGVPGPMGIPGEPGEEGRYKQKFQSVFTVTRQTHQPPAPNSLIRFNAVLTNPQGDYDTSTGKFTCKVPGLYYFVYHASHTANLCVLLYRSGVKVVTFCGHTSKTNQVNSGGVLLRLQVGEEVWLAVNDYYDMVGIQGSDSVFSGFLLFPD

EC50 (ng/mL), H1080 Cell Functional Assay (IL6 secretion) [1]: 13 ng/mL
B1: mouse monoclonal antibody Clone A (antibody, IgG1, V domains shown)
VH: QVQLKESGPGLVAPSQSLSITCTISGFSLTSNGVHWVRQSPGKDLEWLVVIWSDGTTTYNSDFKSRLSISKDNSKSQVFLKMNSLQTDDTAMYYCARHYDWGYYYAMDYWGQGTSVTVSS
VL: DVVMTQTPLSLPVSLGDQASISCRSSQSLVHSNGNTYLHWYLQRPGQSPNLLIYKVSNRFSGVPDRFSGSGSGTDFTLKISRVEAEDLGVYFCSQSTHVPFTFGSGTKLEIK
notes: Hybridoma antibody; also called antibody A
binding result (canine IL17F-polyHis [2]): no binding (tested: 0.6 µg of target per lane)

EC50 (ng/mL), H1080 Cell Functional Assay (IL6 secretion) [1]: 40 ng/mL
B2: mouse monoclonal antibody Clone E (antibody, mouse IgG1, V domains shown)
VH: B1 VH with S40P, D44G, D62A, F63L, W101R
VL: B1 VL with L38F, R44K, N50K, V99A
notes: Hybridoma antibody; also called antibody E
binding result (canine IL17F-polyHis [2]): no binding (tested: 0.6 µg of target per lane)

IC50, H1080 cell-based canine IL17A neutralization assay (IL6 secretion) [3]: 0.41 nM
Kd (canine IL17A-polyHis): 1.4 nM
Kd (canine IL17F-polyHis [4]): 4.1 nM
B3: caninized Clone C antibody (caninized Clone C VH with canine IgG-B, caninized Clone C VL with canine kappa constant region) (antibody, V domains shown)
VH: EVQLVESGGGLVKPGGSLRLSCAASGFTFSSYGMSWVRQAPGKRLELVAIINSNGGSTYYPDSVKGRFTFSLDTSKNTLYLQMNSLRAEDTAMYYCVRCHYDYERVFDYWGQGTLVTVSS
VL: DIQMTQSPASVSGSLGDKVSITCKANDHINNWLAWYQQLPGNAPRLLISGSTSLESGVPDRFSGSKSGSSFTLTISGLQPEDFATYYCQQYWSTPFTFGSGTKVEIKR
notes: expressed in CHO-S cells, purified on Protein A

binding result [5]: binds
binding result [6]: binds
B4: IL4R/IL13R-canine IgG-B wild-type (Fc fusion)
chain: TETQPPVTNLSVSVENLCTVIWTWDPPEGASPNCTLRYFSHFDNKQDKKIAPETHRSKEVPLNERICLQVGSQCSTNESDNPSILVEKCTPPPEGDPESAVTELQCVWHNLSYMKCTWLPGRNTSPDTNYTLYYWHSSLGKILQCEDIYREGQHIGCSFALTNLKDSSFEQHSVQIVVKDNAGKIRPSFNIVPLTSHVKPDPPHIKRLFFQNGNLYVQWKNPQNFYSRCLSYQVEVNNSQTETNDIFYVEEAKCQNSEFEGNLEGTICFMVPGVLPDTLNTVRIRVRTNKLCYEDDKLWSNWSQAMSIGENTDPTGGGSGSGSVKVLHEPSCFSDYISTSVCQWKMDHPTNCSAELRLSYQLDFMGSENHTCVPENREDSVCVCSMPIDDAVEADVYQLDLWAGQQLLWSGSFQPSKHVKPRTPGNLTVHPNISHTWLLMWTNPYPTENHLHSELTYMVNVSNDNDPEDFKVYNVTYMGPTLRLAASTLKSGASYSARVRAWAQTYNSTWSDWSPSTTWLNYYEPKRENGRVPRPPDCPKCPAPEMLGGPSVFIFPPKPKDTLLIARTPEVTCVVVDLDPEDPEVQISWFVDGKQMQTAKTQPREEQFNGTYRVVSVLPIGHQDWLKGKQFTCKVNNKALPSPIERTISKARGQAHQPSVYVLPPSREELSKNTVSLTCLIKDFFPPDIDVEWQSNGQQEPESKYRTTPPQLDEDGSYFLYSKLSVDKSRWQRGDTFICAVMHEALHNHYTQESLSHSPGK

binding result [5]: binds
binding result [6]: binds
B5: IL4R/IL13R-canine IgG-B variant 1 (C1q binding mutant) (Fc fusion)
chain: B4 chain with K634R
